# Test results taken from the supplement of paper PMC9732359.
# ± gives the uncertainty stated by the source.
# Experiment: protein stability index of a GFP-peptide fusion (yeast GPS) (PSI 1-4); higher = more stable; sorted into four equal gates, so the index is relative within each strain
# Summary of the method: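 Tiled 17-residue peptides from yeast proteins were fused downstream of GFP on a plasmid that also expresses Cherry, and the pooled library was carried in yeast. Mid-log cultures grown in leucine-free medium were sorted into four equal gates by GFP/Cherry fluorescence ratio. Plasmids from each gate were PCR-amplified and Illumina-sequenced, and reads were assigned to strains by barcodes. Each peptide's protein stability index is the sum, over gates, of the gate's read frequency multiplied by its gate number.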
Sequence,protein stability index (doa10∆),protein stability index (pdr5∆),protein stability index (san1∆),protein stability index (ubr1∆)
CINELDNWNAPLIMATC [RPO31],3.18 ± 0.16,2.66 ± 0.14,3.3 ± 0.07,3.54 ± 0.12
GLVNPKTVQSMTQRAIQ [SWI3],3.25 ± 0.14,2.25 ± 0.14,2.39 ± 0.14,2.05 ± 0.092
TIKVVKRSMDAEQLGHA [RPP1],3.18 ± 0.067,3.28 ± 0.07,3.41 ± 0.042,3.38 ± 0.077
QTLKGVGVENNGQYAAF [RPC37],3.12 ± 0.14,3.31 ± 0.098,2.9 ± 0.18,2.94 ± 0.2
DFKPPYIYSHVNKVPQN [SWP82],2.16 ± 0.12,2.14 ± 0.11,2.79 ± 0.14,2.62 ± 0.054
LHVEQLSGGQKTVCAIA [SMC3],1.58 ± 0.15,2.08 ± 0.24,2.09 ± 0.15,1.82 ± 0.067
GAGIQIIMQADLALKMG [FAS2],1.84 ± 0.094,2.09 ± 0.065,1.73 ± 0.071,2.03 ± 0.051
VLTAAGVERLIFYPDEY [PRE3],2.78 ± 0.11,2.94 ± 0.093,2.9 ± 0.074,2.95 ± 0.11
QMTWRQWLNNALKRSYG [POP8],2.9 ± 0.085,3.08 ± 0.14,3.56 ± 0.079,3.2 ± 0.079
GLIMLNLQPASVINNYL [NUT1],1.71 ± 0.063,1.5 ± 0.098,1.15 ± 0.27,2 ± 0.071
SRILKAQSRNVEIEKRI [YGR119C/NUP57],3.39 ± 0.07,3.15 ± 0.066,2.98 ± 0.067,2.67 ± 0.053
IYKRGQAGVTKASVTIV [SMC2],1.61 ± 0.093,1.73 ± 0.083,1.78 ± 0.13,1.16 ± 0.11
GSYIDKKCPFTGLVSIR [RPS11A],2.12 ± 0.07,2.06 ± 0.059,2.27 ± 0.081,2.2 ± 0.049
YIEASGREGIWSKTIKA [RPC34],1.78 ± 0.1,2.07 ± 0.16,2.3 ± 0.17,2.42 ± 0.1
RPKPVSPPCYIIDHIPG [SNF5],1.79 ± 0.098,2.64 ± 0.096,2.28 ± 0.12,2.25 ± 0.079
ATSSTNANAGLFNKPPS [YOR098C/NUP1],2.86 ± 0.053,3.06 ± 0.073,3.05 ± 0.079,3.3 ± 0.058
QPASYHSVQETNKISPK [SSN2],3.34 ± 0.098,3.1 ± 0.12,3.08 ± 0.068,1.91 ± 0.069
DDFTNELKAELDRYKRE [SEM1],3.09 ± 0.17,3.36 ± 0.14,2.97 ± 0.11,3.47 ± 0.24
KENYPWELYTDFNEIVQ [POP3],2.42 ± 0.25,–,2.4 ± 0.16,–
KTARGKAALERLKVFEG [RPL16A],2.28 ± 0.15,2.37 ± 0.089,2.95 ± 0.1,2.1 ± 0.12
PFDQNLDSNNNNSNSNN [SWI1],2.65 ± 0.033,2.74 ± 0.037,2.839 ± 0.026,2.74 ± 0.027
GLFDSFTNGVLAVTNLL [YML031W/NDC1],2.64 ± 0.14,2.95 ± 0.22,2.75 ± 0.11,–
LITSEMFDAFVSFYFED [SIN4],1.94 ± 0.1,2.59 ± 0.061,1.87 ± 0.093,2.93 ± 0.081
MINGVYYNEISRDLDIS [POP6],2.09 ± 0.26,1.21 ± 0.14,–,1.76 ± 0.12
VTSSFFYRGNYTDFENT [FAS1],2.05 ± 0.058,2.4 ± 0.049,2.43 ± 0.079,2.57 ± 0.056
DEPMTTFYKCVNCGHRW [RPC11],2.84 ± 0.16,2.5 ± 0.082,2.17 ± 0.15,2.82 ± 0.086
CDYYNTFLLNNKNIDIG [RPN2],3.14 ± 0.087,3.04 ± 0.076,2.85 ± 0.069,2.79 ± 0.086

Sequence,protein stability index (doa10∆),protein stability index (pdr5∆),protein stability index (san1∆),protein stability index (ubr1∆)
SFILSSLEDPQVRKKQI [YDL116W/NUP84],1.94 ± 0.11,2.09 ± 0.079,2.44 ± 0.098,3 ± 0.1
EYVYFFNNTSVIQDEVL [RPC40],2.41 ± 0.15,–,–,2.55 ± 0.073
HPVSLISFAIYSALNST [RRP42],1.53 ± 0.051,1.55 ± 0.058,1.62 ± 0.089,1.84 ± 0.045
SALEQAIIYQRGKDGKL [YGL100W/SEH1],2.93 ± 0.073,3.22 ± 0.051,3.15 ± 0.047,3 ± 0.06
TPRDRRKSVFAPLNFNP [SSN2],2.68 ± 0.066,2.57 ± 0.063,2.95 ± 0.081,2.86 ± 0.045
LESISHAGTAIGIMASD [PRE9],1.45 ± 0.14,2.15 ± 0.1,2.06 ± 0.14,1.5 ± 0.13
EQLSKQRDLYKRKEELV [SMC2],2.34 ± 0.15,3.1 ± 0.19,2.67 ± 0.086,2.73 ± 0.084
LMSCISVGTDPMPIITF [RPB2],2.26 ± 0.086,1.71 ± 0.056,2.28 ± 0.05,2.18 ± 0.054
SLAATYSMISLQNCCII [ARP9],1.47 ± 0.057,1.33 ± 0.056,1.26 ± 0.099,1.26 ± 0.041
EDKFLYGDGNGKGDNDN [SWI3],3.48 ± 0.24,3.35 ± 0.16,3.4 ± 0.08,3.42 ± 0.15
EGRLYQVEYALESISHA [PRE9],2.09 ± 0.056,2.19 ± 0.068,1.98 ± 0.086,1.85 ± 0.048
QRGKWNLKYLDNSNVMT [RGR1],2.37 ± 0.093,2.49 ± 0.084,2.58 ± 0.077,1.95 ± 0.073
TLPQPRLNKLNSNGIAM [SMD1],2.3 ± 0.11,2.27 ± 0.069,1.72 ± 0.094,2.15 ± 0.053
NLTDEGYQWGEENKDIM [PRP8],2.81 ± 0.21,–,–,3.2 ± 0.23
VLAAQSIGEPATQMTLN [RPO21],2.69 ± 0.055,3 ± 0.051,2.87 ± 0.042,2.91 ± 0.048
TDGADENVQIGEDFMEV [SRB4],2.66 ± 0.12,3.35 ± 0.17,–,3.1 ± 0.19
RDDALVVETITSLLNKV [RRP42],2.88 ± 0.071,2.83 ± 0.048,3.1 ± 0.054,3.06 ± 0.045
ESITKAMEFIFGNSLIC [SMC2],2.46 ± 0.071,1.55 ± 0.066,1.39 ± 0.092,1.89 ± 0.046
GIPTDKGPRFRKLTSQE [PRE8],3.14 ± 0.12,3.52 ± 0.18,3.01 ± 0.25,3.46 ± 0.25
TLQLYMVHREFLKLANG [RGR1],1.49 ± 0.047,1.63 ± 0.05,2.07 ± 0.058,2.28 ± 0.049
LLNILITYGIIKVPTYI [SRB8],1.57 ± 0.083,1.52 ± 0.09,–,1.03 ± 0.047
VLQPLLPRELPKLLDAL [SNU114],2.15 ± 0.072,2.2 ± 0.11,2.73 ± 0.11,2.6 ± 0.096
SDNSVSVRLQVTKILPH [IRR1],2.86 ± 0.15,2.92 ± 0.12,2.74 ± 0.097,3.04 ± 0.074
CAYTGTGDVLLIQDLLH [RPN1],3.01 ± 0.059,2.88 ± 0.064,2.75 ± 0.065,2.8 ± 0.052
LSKRQKRKSAQEPELSL [SMC4],3.17 ± 0.11,3.15 ± 0.078,3.09 ± 0.097,3.4 ± 0.1
SYTFRSEKGLLSATQFT [FAS1],2.67 ± 0.052,2.65 ± 0.046,2.84 ± 0.045,2.78 ± 0.036
GHRADVGGQFSKVQFDA [REC8],3.25 ± 0.085,3.45 ± 0.11,3.28 ± 0.059,3.23 ± 0.056
